Laboratory results reported in patent publication US20090252683A1 (Amgen, published 2009).

B1: SEQ ID NO. 170 × EGFR HL (bispecific antibody)
chain: EVQLVESGGGLVQPGGSLKLSCAASGFTFNTYAMNWVRQAPGKGLEWVARIRSKYNNYATYYADSVKDRFTISRDDSKNTAYLQMNNLKTEDTAVYYCVRHGNFGNSYVSWFAYWGQGTLVTVSSGGGGSGGGGSGGGGSQTVVTQEPSLTVSPGGTVTLTCRSSTGAVTTSNYANWVQQKPGQAPRGLIGGTNKRAPGTPARFSGSLLGGKAALTLSGVQPEDEAEYYCALWYSNLWVFGGGTKLTVLSGGGGSQVQLQQSGPDLVKPGASVKMSCKASGHTFTDCVIIWVKQRAGQGLEWIGQIYPGTGRSYYNEIFKGKATLTADKSSNTVHIQLSSLTSEDSAVYFCALSTLIHGTWFSYWGQGTLVTVSSGGGGSGGGGSGGGGSDIVLTQSPASLPVSLGQRATISCRASQSVSSSTYSYIHWYQQKPGQPPKLLITYASNLESGVPARFSGSGSGTDFTLDIHPVEEDDSSTYYCQHSWEIPFTFGSGTKLEIKHHHHHH
notes: the appendix prints the entry with HHHHHH and then *VD at its end
B2: EGFR LH × SEQ ID NO. 194 (bispecific antibody)
chain: DIVLTQSPASLPVSLGQRATISCRASQSVSSSTYSYIHWYQQKPGQPPKLLITYASNLESGVPARFSGSGSGTDFTLDIHPVEEDDSSTYYCQHSWEIPFTFGSGTKLEIKGGGGSGGGGSGGGGSQVQLQQSGPDLVKPGASVKMSCKASGHTFTDCVIIWVKQRAGQGLEWIGQIYPGTGRSYYNEIFKGKATLTADKSSNTVHIQLSSLTSEDSAVYFCALSTLIHGTWFSYWGQGTLVTVSSSGGGGSQTVVTQEPSLTVSPGGTVTLTCRSSTGAVTTSNYANWVQQKPGQAPRGLIGGTNKRAPGTPARFSGSLLGGKAALTLSGVQPEDEAEYYCALWYSNLWVFGGGTKLTVLGGGGSGGGGSGGGGSEVQLVESGGGLVQPGGSLKLSCAASGFTFNTYAMNWVRQAPGKGLEWVARIRSKYNNYATYYADSVKDRFTISRDDSKNTAYLQMNNLKTEDTAVYYCVRHGNFGNSYVSWFAYWGQGTLVTVSSHHHHHH
notes: as for B1
B3: SEQ ID NO. 194 × EGFR HL (bispecific antibody)
chain: QTVVTQEPSLTVSPGGTVTLTCRSSTGAVTTSNYANWVQQKPGQAPRGLIGGTNKRAPGTPARFSGSLLGGKAALTLSGVQPEDEAEYYCALWYSNLWVFGGGTKLTVLGGGGSGGGGSGGGGSEVQLVESGGGLVQPGGSLKLSCAASGFTFNTYAMNWVRQAPGKGLEWVARIRSKYNNYATYYADSVKDRFTISRDDSKNTAYLQMNNLKTEDTAVYYCVRHGNFGNSYVSWFAYWGQGTLVTVSSSGGGGSQVQLQQSGPDLVKPGASVKMSCKASGHTFTDCVIIWVKQRAGQGLEWIGQIYPGTGRSYYNEIFKGKATLTADKSSNTVHIQLSSLTSEDSAVYFCALSTLIHGTWFSYWGQGTLVTVSSGGGGSGGGGSGGGGSDIVLTQSPASLPVSLGQRATISCRASQSVSSSTYSYIHWYQQKPGQPPKLLITYASNLESGVPARFSGSGSGTDFTLDIHPVEEDDSSTYYCQHSWEIPFTFGSGTKLEIKHHHHHH
notes: as for B1
B4: SEQ ID NO. 170 × EGFR LH (bispecific antibody)
chain: EVQLVESGGGLVQPGGSLKLSCAASGFTFNTYAMNWVRQAPGKGLEWVARIRSKYNNYATYYADSVKDRFTISRDDSKNTAYLQMNNLKTEDTAVYYCVRHGNFGNSYVSWFAYWGQGTLVTVSSGGGGSGGGGSGGGGSQTVVTQEPSLTVSPGGTVTLTCRSSTGAVTTSNYANWVQQKPGQAPRGLIGGTNKRAPGTPARFSGSLLGGKAALTLSGVQPEDEAEYYCALWYSNLWVFGGGTKLTVLSGGGGSDIVLTQSPASLPVSLGQRATISCRASQSVSSSTYSYIHWYQQKPGQPPKLLITYASNLESGVPARFSGSGSGTDFTLDIHPVEEDDSSTYYCQHSWEIPFTFGSGTKLEIKGGGGSGGGGSGGGGSQVQLQQSGPDLVKPGASVKMSCKASGHTFTDCVIIWVKQRAGQGLEWIGQIYPGTGRSYYNEIFKGKATLTADKSSNTVHIQLSSLTSEDSAVYFCALSTLIHGTWFSYWGQGTLVTVSSHHHHHH
notes: 184 as EGFR LH; the appendix heads it EGFR HL; ends with HHHHHH and *VD in the appendix
B5: SEQ ID NO. 194 × EGFR LH (bispecific antibody)
chain: QTVVTQEPSLTVSPGGTVTLTCRSSTGAVTTSNYANWVQQKPGQAPRGLIGGTNKRAPGTPARFSGSLLGGKAALTLSGVQPEDEAEYYCALWYSNLWVFGGGTKLTVLGGGGSGGGGSGGGGSEVQLVESGGGLVQPGGSLKLSCAASGFTFNTYAMNWVRQAPGKGLEWVARIRSKYNNYATYYADSVKDRFTISRDDSKNTAYLQMNNLKTEDTAVYYCVRHGNFGNSYVSWFAYWGQGTLVTVSSSGGGGSDIVLTQSPASLPVSLGQRATISCRASQSVSSSTYSYIHWYQQKPGQPPKLLITYASNLESGVPARFSGSGSGTDFTLDIHPVEEDDSSTYYCQHSWEIPFTFGSGTKLEIKGGGGSGGGGSGGGGSQVQLQQSGPDLVKPGASVKMSCKASGHTFTDCVIIWVKQRAGQGLEWIGQIYPGTGRSYYNEIFKGKATLTADKSSNTVHIQLSSLTSEDSAVYFCALSTLIHGTWFSYWGQGTLVTVSSHHHHHH
notes: 186 as EGFR LH; the appendix heads it EGFR HL; ends with HHHHHH and *VD in the appendix
B6: EGFR HL × SEQ ID NO. 170 (bispecific antibody)
chain: QVQLQQSGPDLVKPGASVKMSCKASGHTFTDCVIIWVKQRAGQGLEWIGQIYPGTGRSYYNEIFKGKATLTADKSSNTVHIQLSSLTSEDSAVYFCALSTLIHGTWFSYWGQGTLVTVSSGGGGSGGGGSGGGGSDIVLTQSPASLPVSLGQRATISCRASQSVSSSTYSYIHWYQQKPGQPPKLLITYASNLESGVPARFSGSGSGTDFTLDIHPVEEDDSSTYYCQHSWEIPFTFGSGTKLEIKSGGGGSEVQLVESGGGLVQPGGSLKLSCAASGFTFNTYAMNWVRQAPGKGLEWVARIRSKYNNYATYYADSVKDRFTISRDDSKNTAYLQMNNLKTEDTAVYYCVRHGNFGNSYVSWFAYWGQGTLVTVSSGGGGSGGGGSGGGGSQTVVTQEPSLTVSPGGTVTLTCRSSTGAVTTSNYANWVQQKPGQAPRGLIGGTNKRAPGTPARFSGSLLGGKAALTLSGVQPEDEAEYYCALWYSNLWVFGGGTKLTVLHHHHHH
notes: the appendix prints the entry with HHHHHH and then *VD (stop and vector residues) at its end
B7: EGFR HL × SEQ ID NO. 194 (bispecific antibody)
chain: QVQLQQSGPDLVKPGASVKMSCKASGHTFTDCVIIWVKQRAGQGLEWIGQIYPGTGRSYYNEIFKGKATLTADKSSNTVHIQLSSLTSEDSAVYFCALSTLIHGTWFSYWGQGTLVTVSSGGGGSGGGGSGGGGSDIVLTQSPASLPVSLGQRATISCRASQSVSSSTYSYIHWYQQKPGQPPKLLITYASNLESGVPARFSGSGSGTDFTLDIHPVEEDDSSTYYCQHSWEIPFTFGSGTKLEIKSGGGGSQTVVTQEPSLTVSPGGTVTLTCRSSTGAVTTSNYANWVQQKPGQAPRGLIGGTNKRAPGTPARFSGSLLGGKAALTLSGVQPEDEAEYYCALWYSNLWVFGGGTKLTVLGGGGSGGGGSGGGGSEVQLVESGGGLVQPGGSLKLSCAASGFTFNTYAMNWVRQAPGKGLEWVARIRSKYNNYATYYADSVKDRFTISRDDSKNTAYLQMNNLKTEDTAVYYCVRHGNFGNSYVSWFAYWGQGTLVTVSSHHHHHH
notes: as for B1
B8: EGFR LH × SEQ ID NO. 170 (bispecific antibody)
chain: DIVLTQSPASLPVSLGQRATISCRASQSVSSSTYSYIHWYQQKPGQPPKLLITYASNLESGVPARFSGSGSGTDFTLDIHPVEEDDSSTYYCQHSWEIPFTFGSGTKLEIKGGGGSGGGGSGGGGSQVQLQQSGPDLVKPGASVKMSCKASGHTFTDCVIIWVKQRAGQGLEWIGQIYPGTGRSYYNEIFKGKATLTADKSSNTVHIQLSSLTSEDSAVYFCALSTLIHGTWFSYWGQGTLVTVSSGGGGSEVQLVESGGGLVQPGGSLKLSCAASGFTFNTYAMNWVRQAPGKGLEWVARIRSKYNNYATYYADSVKDRFTISRDDSKNTAYLQMNNLKTEDTAVYYCVRHGNFGNSYVSWFAYWGQGTLVTVSSGGGGSGGGGSGGGGSQTVVTQEPSLTVSPGGTVTLTCRSSTGAVTTSNYANWVQQKPGQAPRGLIGGTNKRAPGTPARFSGSLLGGKAALTLSGVQPEDEAEYYCALWYSNLWVFGGGTKLTVLHHHHHH
notes: as for B1

Each binder was assayed against T1, human EGFR on A431 cells (human, UniProt P00533 25-1210) (assay: FACS, A431 cells, 1 µg/ml purified protein, anti-His detection).
T1 construct: whole, on cells
Description: In order to test the functionality of the cross-species specific bispecific antibody constructs with regard to binding capability to human and cynomolgus EGFR and CD3, respectively, a FACS analysis was performed. For this purpose the EGFR positive epidermoid carcinoma A431 cells (ATCC, CRL-1555) and CD3 positive human T cell leukemia cell line HPB-ALL (DSMZ, Braunschweig, ACC483) were used to check the binding to human antigens. The binding reactivity to cynomolgus antigens was tested by using the generated cynomolgus EGFR transfectants described in Example 20 and cynomolgus PBMCs which were obtained by Ficoll density gradient centrifugation. 200,000 cells of the respective cell population were incubated for 30 min on ice with 50 μl of the purified protein of the cross-species specific bispecific antibody constructs (1 μg/ml). The cells were washed twice in PBS and binding of the construct was detected with an unlabeled murine Penta His antibody (diluted 1:20 in 50 μl PBS with 2% FCS; Qiagen; Order No. 34660). After washing, bound anti His antibodies were detected with an Fc gamma-specific antibody (Dianova) conjugated to phycoerythrin, diluted 1:100 in 50 μl PBS with 2% FCS. Fresh culture medium was used as a negative control.
Cells were analyzed by flow cytometry on a FACS-Calibur apparatus (Becton Dickinson, Heidelberg). FACS staining and measuring of the fluorescence intensity were performed as described in Current Protocols in Immunology (Coligan, Kruisbeek, Margulies, Shevach and Strober, Wiley-Interscience, 2002).

Binding result, binds:
B1, B2, B3, B4, B5, B6, B7, B8
